These results are taken from publication PMC11558679, “Artificial Zymogen Based on Protein–Polymer Hybrids” (Biomacromolecules, 2024).

Data set [1] in a line: Biocatalytic assay (Michaelis–Menten) of CT and CT hybrids with suc-Ala-Ala-Pro-Phe-pNA. The data set is classed as biochemical, bovine. As to the method: N-Succinyl-L-Ala-L-Ala-L-Pro-L-Phe-p-nitroanilide was used as a substrate for enzyme bioactivity assays. In a cuvette, 0.1 M sodium phosphate buffer (910–990 μL, pH 8.0), substrate (0–80 μL, 6 mg/mL in DMSO), and enzyme (10 μL, 0.1 mg CT/mL in 0.1 M sodium phosphate buffer (pH 8.0), 40 nM as final CT concentration) were mixed. The rate of hydrolysis was determined by recording the increase in absorbance at 412 nm for the first 45 s after mixing. KM and kcat values were calculated using the Enzfitter software when plotting substrate concentration versus initial hydrolysis velocity.

A short description of data set [2]: Biocatalytic assay (Michaelis–Menten) of TR and TR hybrids with Tos-Gly-Pro-Arg-pNA. It counts as biochemical, bovine. Particulars: [TR]0 = 8.4 nM, [Tos-GPR-pNA]0 = 0–302 μM, 100 mM Tris–HCl and 20 mM CaCl2 (pH 8.0), 37 °C, absorbance 412 nm, first 45 s, Enzfitter; for Km: read-out: KM. As to the method:
N-Tosyl-L-Gly-L-Pro-L-Arg-p-nitroanilide was used as a substrate for enzyme bioactivity assays. In a cuvette, 0.1 M Tris HCl and 20 mM calcium chloride buffer (890–990 μL, pH 8.0), substrate (0–100 μL, 2 mg/mL in DMSO), and enzyme (10 μL, 0.02 mg TR/mL in 100 mM Tris–HCl and 20 mM calcium chloride (pH 8.0), 8.4 nM as final concentration) were mixed for enzyme bioactivity assays. The rate of hydrolysis was determined by recording the increase in absorbance at 412 nm for the first 45 s after mixing. KM and kcat values were calculated using Enzfitter software when plotting substrate concentration versus initial hydrolysis velocity. […]
Table S5. Char acterization and enzymatic activity of TR-pCBMA and inhibited pro- T R pol ymer h ybr i ds with different linkers between the inhibitory and cleavable peptide moieties.
SEC-M ALLS anal ysi s Michaelis-Menten parameters d
Mnb Mwb Đb DPc KM kcat kcat/KM samples kg mol-1 kg mol-1 (CBM A/inhibitor) (µM) (s-1) (µM-1 s-1) […]
SEC -MALLS and 1H NMR spectra. d conditions: [TR]0 = 8.4 nM, [Tos-GPR-pNA]0 = 0 - 302 µM, buffer 100 mM Tris-HCl and 20 mM CaCl2 (pH 8.0) at 37 °C. […]

Where [3] appears, read: [CT]0 = 40 nM, [suc-AAPFpNA]0 = 0–960 μM, 100 mM sodium phosphate (pH 8.0), 37 °C, absorbance 412 nm, first 45 s, Enzfitter.

Values joined by “and” are separate entries in the source; they are usually repeats but may differ in a detail not shown here. Identical values can stand only once.

As a reminder, the Km is the concentration of substrate that gives half-maximal velocity. As to “N-succinyl-L-Ala-L-Ala-L-Pro-L-Phe-p-nitroanilide [suc-Ala-Ala-Pro-Phe-pNA, reference compound]”, the Km in data set [1] (rounded value in comparison with Ki, read-out: KM of the peptide substrate for native CT) is 90 µM.

Take “α-Chymotrypsin from bovine pancreas, Type II [native CT]”: in data set [1] (setting [3]), the kcat worked out at 43.6 s^–1; the kcat/KM was 0.484 μM^–1 s^–1 and 0.484 ± 0.069 μM^–1 s^–1. In data set [1] ([CT]0 = 40 nM, [suc-AAPFpNA]0 = 0–960 μM, 100 mM sodium phosphate (pH 8.0), 37 °C, absorbance 412 nm, first 45 s, Enzfitter, read-out: KM), the Michaelis constant (Km) was determined as 90.1 ± 12.5 µM.

B1: TR-pCBMA hybrid: control without inhibitory domain; poly(CBMA) exclusively grafted from TR (conjugate, UniProt P00760 24-246, looked up)
Serine protease 1: IVGGYTCGANTVPYQVSLNSGYHFCGGSLINSQWVVSAAHCYKSGIQVRLGEDNINVVEGNEQFISASKSIVHPSYNSNTLNNDIMLIKLKSAASLNSRVASISLPTSCASAGTQCLISGWGNTKSSGTSYPDVLKCLKAPILSDSSCKSAYPGQITSNMFCAGYLEGGKDSCQGDSGGPVVCSGKLQGIVSWGSGCAQKNKPGVYTKVCNYVSWIKQTIASN
modifications: poly(CBMA) grafted
Turning to B1, in data set [2], the kcat was found to be 45.7 ± 1.1 s^–1, the kcat/KM came to 2.43 ± 0.36 μM^–1 s^–1 and the Km worked out at 18.8 ± 2.8 µM. Also, in data set [2] (listed as TR-pCBMA), the kcat/KM is 2.43 ± 0.36 μM^–1 s^–1 and 2.43 μM^–1 s^–1. Besides, the kcat/KM in data set [1] (setting [3]) turned out to be 0.292 μM^–1 s^–1.

B2: trypsin from bovine pancreas, Type I (protein, UniProt P00760 24-246, looked up)
Serine protease 1: B1 Serine protease 1
notes: trypsin from bovine pancreas, Type I (TR), Sigma-Aldrich
Turning to B2, in data set [2], the kcat is 63.5 s^–1 and 63.5 ± 1.3 s^–1; the kcat/KM was determined as 2.87 ± 0.25 μM^–1 s^–1; the Km stood at 22.2 ± 1.9 µM.
